Our source for the Kd and koff values is US20210309754A1 (JCR PHARMACEUTICALS, published 2021).

The test has as its target T1, recombinant monkey TfR (r monkey TfR: Sino Biological Inc.), cynomolgus monkey TfR extracellular region with … (cynomolgus monkey (Macaca fascicularis), UniProt Q5RDH6 89-760 (Pongo abelii entry)).
T1 construct: Bought (Sino Biological); also called r monkey TfR-ECD (Histag); not shown: histidine tag attached to the N-terminus
T1 chain: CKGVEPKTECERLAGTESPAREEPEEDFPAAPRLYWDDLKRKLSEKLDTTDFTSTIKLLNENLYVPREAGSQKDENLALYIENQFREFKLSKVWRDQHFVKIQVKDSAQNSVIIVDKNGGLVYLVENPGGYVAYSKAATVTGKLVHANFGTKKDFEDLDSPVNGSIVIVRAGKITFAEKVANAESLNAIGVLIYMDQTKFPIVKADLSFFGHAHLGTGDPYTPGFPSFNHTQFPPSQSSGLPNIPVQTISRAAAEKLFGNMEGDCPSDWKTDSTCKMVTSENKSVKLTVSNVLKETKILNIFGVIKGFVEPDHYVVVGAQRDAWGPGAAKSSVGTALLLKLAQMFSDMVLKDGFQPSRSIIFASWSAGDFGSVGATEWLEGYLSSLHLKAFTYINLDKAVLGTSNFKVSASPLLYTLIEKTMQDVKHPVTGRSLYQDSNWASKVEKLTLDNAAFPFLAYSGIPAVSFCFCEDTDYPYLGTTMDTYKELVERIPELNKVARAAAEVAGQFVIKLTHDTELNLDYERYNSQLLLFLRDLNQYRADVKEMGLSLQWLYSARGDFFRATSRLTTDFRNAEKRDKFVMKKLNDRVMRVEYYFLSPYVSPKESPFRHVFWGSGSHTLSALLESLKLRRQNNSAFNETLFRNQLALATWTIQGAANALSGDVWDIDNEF
The experiment in a line: BLI, Octet RED96, His-TfR ECD on Ni-NTA sensor. How it is done: By measuring the variations of this shift between the interfering waves, determination of the number of the molecules bound to the layer of the biomolecules immobilized to the sensor tip surface and kinetic analysis of it can be performed in real time. The measurement was performed according generally to the operating manual attached to Octet RED96. As a human TfR, a recombinant human TfR (r human TfR: Sino Biological Inc.) was used, which had the amino acid sequence of the hTfR extracellular region, i.e., the cysteine residue at the position 89th from the N-terminal side to the phenylalanine at the C-terminus, of the amino acid sequence set forth as SEQ ID NO:1, with a histidine tag attached to the N-terminus. As a monkey TfR, a recombinant monkey TfR (r monkey TfR: Sino Biological Inc.) was used, which had the amino acid sequence of the cynomolgus monkey TfR extracellular region, i.e., the cysteine residue at the position 89th from the N-terminal side to the phenylalanine at the C-terminus, of the amino acid sequence set forth as SEQ ID NO:2, with a histidine tag attached to the N-terminus. […]
(In general: In BLI a coated tip is dipped into the sample, and binding shifts an interference pattern.)

B1: anti-hTfR antibody No. 6 (antibody, V domains shown)
VH: EVQLQESGPGLVAPSQSLSITCSVSGFSLSTYGVYWVRQPPGKGLEWLGIIWGDGSTNYHSALISRLTISKDNSKSQVFLKLNSLQTADTATYYCAKPDDVWGAGTTVTVSS
VL: DIVLTQTPSSLSASLGERVSLTCRASQEISGYLSWLQQKPDGTIKRLIYAASTLDSGVPKRFSGSRSGSDYSLTISSLESEDFADYYCLQYSSYPRTFGGGTKLEIK
notes: Mouse monoclonal antibody from a hybridoma, purified on Protein G; also called mouse anti-hTfR antibody No. 6; antibody of Clone 6 line
In the case of B1, the dissociation constant Kd – broadly, the constant that tells how readily two partners part at equilibrium – was determined as 0.477 nM.

B2: anti-hTfR antibody No. 2 (antibody, V domains shown)
VH: EVQLQESGAELVRPGVSVKISCKGSGYTFTDYVMHWVRQSHAKSLEWIGVISTYYGHGSYNQRFKGKATMTVDKSSSTAYLELVRLTSEDSAIYYCVRGGYGSSSLAGNFDVWGAGTTVTVSS
VL: DIVLTQSPATLSVTPGDSVSLSCRASQSISNNLQWYQQKSHESPRLLIKYASQSISGIPSRFSGSGSGTDFTLSINSVETEDFGMYFCQQSNSWPRTFGAGTKLELKR
notes: Mouse monoclonal antibody from a hybridoma, purified on Protein G; also called mouse anti-hTfR antibody No. 2; antibody of Clone 2 line
For B2, the koff (in general, a measure of how fast the partners let go of each other) is 1.75e-05 s⁻¹.
